Assay results published in FireProtDB (doi:10.1006/jmbi.2001.4521).

Details: Drosophila melanogaster, pH 6, Thermal, CD, phosphate 50 mM, Na2SO4 0.4 M, whole UniProt chain shown

B1: Growth factor receptor-bound protein 2 wild type, Q08012 (protein)
chain: MEAIAKHDFSATADDELSFRKTQILKILNMEDDSNWYRAELDGKEGLIPSNYIEMKNHDWYYGRITRADAEKLLSNKHEGAFLIRISESSPGDFSLSVKCPDGVQHFKVLRDAQSKFFLWVVKFNSLNELVEYHRTASVSRSQDVKLRDMIPEEMLVQALYDFVPQESGELDFRRGDVITVTDRSDENWWNGEIGNRKGIFPATYVTPYHS
25 °C
  unfolding free energy: 1.8 kcal/mol
  Tm: 63.7 °C
